Test results taken from patent US20190330365A1 (University of California, published 2019).
Values joined by “and” are separate entries in the source; they are usually repeats but may differ in a detail not shown here. Equal entries are not always repeated.

Tests used:
[1] = target: Low-density lipoprotein receptor-related protein 6 (LRP6), human, on cells (human) (UniProt O75581); test: cell-based or functional assay
[2] = target: T1, Low-density lipoprotein receptor-related protein 6 (LRP6), human, on cells (human, UniProt O75581 20-1613); test: cell-based or functional assay
T1 sequence (O75581 20-1613): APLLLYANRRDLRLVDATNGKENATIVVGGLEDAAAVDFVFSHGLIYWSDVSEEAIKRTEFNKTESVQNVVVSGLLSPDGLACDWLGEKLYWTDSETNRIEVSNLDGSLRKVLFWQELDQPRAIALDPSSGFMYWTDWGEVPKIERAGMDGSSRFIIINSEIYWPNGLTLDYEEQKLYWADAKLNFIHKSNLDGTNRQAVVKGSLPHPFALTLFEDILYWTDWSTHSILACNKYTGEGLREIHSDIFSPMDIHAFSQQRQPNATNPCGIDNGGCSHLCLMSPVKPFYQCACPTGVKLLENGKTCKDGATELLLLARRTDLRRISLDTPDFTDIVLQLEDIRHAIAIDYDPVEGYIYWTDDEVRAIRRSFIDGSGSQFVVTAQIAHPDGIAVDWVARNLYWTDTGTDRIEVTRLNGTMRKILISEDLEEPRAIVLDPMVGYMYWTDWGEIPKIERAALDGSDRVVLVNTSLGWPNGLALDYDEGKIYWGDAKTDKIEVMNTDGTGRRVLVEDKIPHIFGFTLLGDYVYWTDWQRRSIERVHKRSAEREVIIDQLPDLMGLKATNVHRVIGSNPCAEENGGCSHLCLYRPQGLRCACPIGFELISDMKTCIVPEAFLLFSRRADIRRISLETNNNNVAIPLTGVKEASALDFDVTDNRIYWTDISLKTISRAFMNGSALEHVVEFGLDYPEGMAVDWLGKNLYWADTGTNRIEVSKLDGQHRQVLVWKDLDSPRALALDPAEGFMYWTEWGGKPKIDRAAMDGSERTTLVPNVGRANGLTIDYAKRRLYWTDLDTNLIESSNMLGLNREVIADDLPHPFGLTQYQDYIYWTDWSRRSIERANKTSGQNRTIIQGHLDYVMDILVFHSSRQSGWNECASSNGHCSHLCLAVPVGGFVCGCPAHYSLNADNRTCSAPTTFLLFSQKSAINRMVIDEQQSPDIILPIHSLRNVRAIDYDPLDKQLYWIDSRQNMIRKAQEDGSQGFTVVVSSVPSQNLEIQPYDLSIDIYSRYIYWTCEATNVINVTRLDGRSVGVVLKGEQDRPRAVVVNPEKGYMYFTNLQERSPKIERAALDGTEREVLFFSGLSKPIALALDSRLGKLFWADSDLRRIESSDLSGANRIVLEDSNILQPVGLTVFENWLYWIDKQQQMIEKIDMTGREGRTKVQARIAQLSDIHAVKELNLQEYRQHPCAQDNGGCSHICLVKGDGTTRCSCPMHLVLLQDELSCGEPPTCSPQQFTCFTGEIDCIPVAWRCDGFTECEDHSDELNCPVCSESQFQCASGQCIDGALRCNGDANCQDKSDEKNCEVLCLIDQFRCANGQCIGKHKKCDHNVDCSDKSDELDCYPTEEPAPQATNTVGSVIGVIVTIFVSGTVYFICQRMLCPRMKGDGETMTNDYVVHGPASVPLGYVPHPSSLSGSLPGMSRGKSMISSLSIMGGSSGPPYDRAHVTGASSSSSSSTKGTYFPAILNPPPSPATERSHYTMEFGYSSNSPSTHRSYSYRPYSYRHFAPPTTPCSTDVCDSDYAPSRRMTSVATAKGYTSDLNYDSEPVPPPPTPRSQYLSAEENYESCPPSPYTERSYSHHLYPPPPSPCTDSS

[3] = target: T1, Low-density lipoprotein …; test: apparent KD, flow cytometry on HEK293 cells that express LRP6, curve fit
Protocol: FIGS. 7A-7E depict the results illustrating characterization of anti-LRP6 scFvs and derived bsAbs. FIG. 7A depicts the results of anti-LRP6 scFv-phage screening by flow cytometry analysis. Individual scFv-phage clones were separately amplified from the 3rd round panning output against LRP6E1E2 or LRP6E3E4 domain. scFv-phage particles were incubated with parental HEK293 or LRP6-transfected HEK293 cells and detected by biotinylated anti-M13 IgG and PE-labeled streptavidin. Relative MFI values (folds of phage binding to LRP6+ cells against LRP6− cells) were plotted on a graph. FIGS. 7B and 7C depict the results of flow cytometry analysis for binding kinetics of E34N19 (B) or E12N21 (C) scFv-Fc to HEK293 cells. The apparent KD was calculated based on the non-linear curve fittings by Prism 5 program. FIG. 7D depicts the results of cell-binding analysis of mono- or bi-specific anti-LRP6 antibodies. Binding of E34N19 scFv-Fc, E34N19 IgG, H/6 TaFv-Fc, 6/H bsIgG, or H3 IgG (each 100 nM) to HEK293 cells originally expressing ALCAM was analyzed by flow cytometry. […]
The apparent antibody binding affinity was measured on target cells by FACS as described (An, Zhu). […] After 1 hr incubation, cells were washed and analyzed by FACS as described above. The apparent KD was determined by a curve fit method using MFI values as described (Benedict, An, Zhu).

[4] = target: T2, Activated leukocyte cell adhesion molecule (ALCAM), on cells (human, UniProt Q13740 28-583); test: apparent KD on cells
T2 construct: whole, on cells; also called guide antigen
T2 sequence (looked up): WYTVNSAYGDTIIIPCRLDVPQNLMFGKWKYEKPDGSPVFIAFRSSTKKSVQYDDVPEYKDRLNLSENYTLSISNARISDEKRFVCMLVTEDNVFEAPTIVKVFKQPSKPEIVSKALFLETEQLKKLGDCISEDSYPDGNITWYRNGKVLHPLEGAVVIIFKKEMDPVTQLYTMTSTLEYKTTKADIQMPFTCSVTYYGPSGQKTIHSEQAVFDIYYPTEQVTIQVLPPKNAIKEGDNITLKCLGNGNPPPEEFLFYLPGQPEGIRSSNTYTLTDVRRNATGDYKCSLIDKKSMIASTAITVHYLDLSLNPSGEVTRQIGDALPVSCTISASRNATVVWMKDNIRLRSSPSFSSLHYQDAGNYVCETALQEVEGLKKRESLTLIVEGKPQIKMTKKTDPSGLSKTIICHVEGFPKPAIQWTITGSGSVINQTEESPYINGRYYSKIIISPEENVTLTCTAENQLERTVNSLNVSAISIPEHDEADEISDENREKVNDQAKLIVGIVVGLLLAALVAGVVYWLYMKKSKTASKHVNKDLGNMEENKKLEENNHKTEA

[5] = target: T3, EphA2, murine, on CT26 cells (mouse, UniProt Q03145 26-977); test: FACS on murine colon cancer cell line CT26 that expresses EphA2
T3 construct: whole, on cells; also called murine antigen
T3 sequence (Q03145 26-977): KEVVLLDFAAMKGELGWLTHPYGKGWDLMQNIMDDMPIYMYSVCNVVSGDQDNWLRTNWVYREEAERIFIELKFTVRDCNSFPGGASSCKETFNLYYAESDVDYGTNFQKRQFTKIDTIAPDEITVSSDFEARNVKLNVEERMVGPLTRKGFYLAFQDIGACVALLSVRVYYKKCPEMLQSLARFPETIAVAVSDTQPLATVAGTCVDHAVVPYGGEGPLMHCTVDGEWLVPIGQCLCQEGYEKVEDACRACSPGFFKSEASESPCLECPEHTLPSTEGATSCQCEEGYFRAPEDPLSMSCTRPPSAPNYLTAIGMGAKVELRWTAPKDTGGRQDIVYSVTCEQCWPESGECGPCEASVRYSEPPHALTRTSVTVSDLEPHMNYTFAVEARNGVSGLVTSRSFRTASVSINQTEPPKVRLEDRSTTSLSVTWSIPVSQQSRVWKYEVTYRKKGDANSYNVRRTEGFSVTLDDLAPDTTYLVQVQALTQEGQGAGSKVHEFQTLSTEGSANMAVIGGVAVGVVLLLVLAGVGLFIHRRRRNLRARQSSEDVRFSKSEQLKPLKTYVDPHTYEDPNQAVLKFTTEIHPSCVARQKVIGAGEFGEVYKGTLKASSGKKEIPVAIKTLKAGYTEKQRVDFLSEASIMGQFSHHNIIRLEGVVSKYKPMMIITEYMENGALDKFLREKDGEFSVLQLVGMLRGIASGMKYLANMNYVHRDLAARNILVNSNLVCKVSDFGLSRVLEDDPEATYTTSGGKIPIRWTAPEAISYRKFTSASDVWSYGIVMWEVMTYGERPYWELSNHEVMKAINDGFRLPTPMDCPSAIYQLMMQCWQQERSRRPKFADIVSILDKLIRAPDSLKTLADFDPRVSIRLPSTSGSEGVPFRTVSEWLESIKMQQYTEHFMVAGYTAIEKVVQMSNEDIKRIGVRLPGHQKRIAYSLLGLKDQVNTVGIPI

[6] = target: T4, Ephrin type-A receptor 2 (EphA2), human, on cells (human, UniProt P29317 24-976); test: FACS
T4 construct: whole, on cells; also called guide antigen
T4 sequence (P29317 24-976): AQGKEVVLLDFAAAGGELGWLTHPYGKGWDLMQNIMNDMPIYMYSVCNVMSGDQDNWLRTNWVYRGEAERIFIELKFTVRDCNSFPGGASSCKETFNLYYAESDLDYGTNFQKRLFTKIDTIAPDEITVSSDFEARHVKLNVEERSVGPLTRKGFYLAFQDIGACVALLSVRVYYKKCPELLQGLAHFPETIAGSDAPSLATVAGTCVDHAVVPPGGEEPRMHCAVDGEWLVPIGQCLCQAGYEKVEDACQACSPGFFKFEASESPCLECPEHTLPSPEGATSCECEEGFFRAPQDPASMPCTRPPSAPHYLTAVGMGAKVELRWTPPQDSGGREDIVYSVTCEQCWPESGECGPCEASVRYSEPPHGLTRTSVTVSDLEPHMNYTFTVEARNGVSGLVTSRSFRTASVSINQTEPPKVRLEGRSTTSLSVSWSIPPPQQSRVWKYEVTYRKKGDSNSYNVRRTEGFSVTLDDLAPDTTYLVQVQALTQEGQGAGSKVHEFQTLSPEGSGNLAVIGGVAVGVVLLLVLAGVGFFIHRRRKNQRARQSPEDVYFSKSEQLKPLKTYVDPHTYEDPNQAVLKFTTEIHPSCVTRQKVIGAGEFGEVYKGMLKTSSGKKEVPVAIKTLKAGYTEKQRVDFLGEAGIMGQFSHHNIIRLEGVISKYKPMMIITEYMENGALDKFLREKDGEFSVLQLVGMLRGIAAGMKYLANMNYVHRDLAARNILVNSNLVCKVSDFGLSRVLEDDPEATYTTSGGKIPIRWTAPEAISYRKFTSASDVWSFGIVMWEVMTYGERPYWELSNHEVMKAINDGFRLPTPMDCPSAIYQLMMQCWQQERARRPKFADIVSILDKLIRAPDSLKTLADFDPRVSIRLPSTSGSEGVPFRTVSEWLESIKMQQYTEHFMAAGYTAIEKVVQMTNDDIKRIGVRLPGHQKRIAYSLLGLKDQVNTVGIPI

Low-density lipoprotein receptor-related protein 6 (LRP6), human, on cells (human), sequence (O75581 20-1613): as the sequence (O75581 20-1613) above

B1: E34N19/H3 bsIgG (bispecific antibody, part only; not given: constant regions and CL-scFv linker, not shown: another chain or arm of the molecule; a dimerising Fc or GST; small tags and cut ends)
VH: QVNLRESGGGLVQPGGSLRLSCAASGFTFSSYAMSWVRQAPGKGLEWVSAISGSGGSTYYADSVKGRFTISRDNSKNTLYLQMNSLRAEDTAVYYCAKVRGHGGNSGWVDYWGQGTLVTVSS
VL: QSVLTQDPAVSVALGQTVKITCQGDSLRTYYTSWYQQRPGQAPILVLYANTHRPSSIPDRFSGSSSGTTASLTITGAQAEDEADYYCNSRDSSGNYLFGGGTKLTVL
scFv: QVQLVESGGGLVQPGGSLRLSCAASGFTFSSYAMSWVRQAPGKGLEWVSAISGSGGSTYYADSVKGRFTISRDNSKDTLYLQMNSLRAEDTAVYYCASRSLLDYWGQGTLVTVSSGGGGSGGGGSGGGGSNFMLTQNPAVSVALGQTVRITCQGDSLRSYYASWYQQKPGQAPLLVIYGKNNRPSGIPDRFSGSSSGNTASLTITGAQAEDEADYYCNSRDSSGNPVFGGGTKVTVL
- IC50, STF reporter, Wnt3a-transfected HEK293 [1]: 0.0446 nM

B2: E34N19 IgG (antibody, V domains shown)
VH: B1 VH
VL: B1 VL
- IC50, STF reporter, Wnt3a-transfected HEK293 [2]: 5.2 nM

B3: E34N19 scFv-Fc (Fc fusion)
scFv: QVNLRESGGGLVQPGGSLRLSCAASGFTFSSYAMSWVRQAPGKGLEWVSAISGSGGSTYYADSVKGRFTISRDNSKNTLYLQMNSLRAEDTAVYYCAKVRGHGGNSGWVDYWGQGTLVTVSSGGGGSGGGGSGGGGSQSVLTQDPAVSVALGQTVKITCQGDSLRTYYTSWYQQRPGQAPILVLYANTHRPSSIPDRFSGSSSGTTASLTITGAQAEDEADYYCNSRDSSGNYLFGGGTKLTVL
notes: scFv gene cloned into unmodified pFUSE-hIgG1-Fc2; In some assays biotin-labelled as the detection reagent; also called monospecific E34N19; anti-effector mAb E34N19; not shown: human IgG1 Fc of vector pFUSE-hIgG1-Fc2 (InvivoGen)
- Kd [3]: ~1.4 nM
- EC50 (so in the source), STF reporter, Wnt3a, HEK293 [2]: 3.02 nM
- IC50, STF reporter, Wnt3a-transfected HEK293 [2]: ~3 nM and 3.43 nM

B4: E12N21 scFv-Fc (Fc fusion)
scFv: QVQLQESGGGLVKPGGSLRLSCAASGFTFSSYWMSWVRQAPGKGLEWVANIKQDGSEKYYVDSVKGRFTISRDNSKNTLYLQMNSLRAEDTAIYYCAKTMTASAWLGGGRDSWGQGTLVTVSSGGGGSGGGGSGGGGSQSVLTQDPAVSVALGQTVRITCQGDSLRTLSTNWYQQKSGQAPVLVIYGNSNRPSGVPDRFSGSSSGNTASLTITGAQAEDEADYYCQSYDNSVRGSRVFGTGTKLTVL
notes: scFv gene cloned into unmodified pFUSE-hIgG1-Fc2; also called monoclonal E12N21; not shown: human IgG1 Fc of vector pFUSE-hIgG1-Fc2 (InvivoGen)
- Kd [3]: ~5.2 nM
- IC50, STF reporter, Wnt1-transfected HEK293 [2]: ~3.5 nM
- IC50, Wnt1-induced STF reporter activity, HEK293 [2]: 2.63 nM

B5: PD32 (anti-ALCAM guide antibody, format not stated) (antibody, V domains shown)
VH: QVQLQESGGGLVQPGGSLRLSCAASGFTFSSYALSWVRQAPGKGLEWVSAISGSGGSTYYAGSVKGRFTISRDNSKNTLYLQMNSLRAEDTAVYYCAKGLIASHWGQGTLVTVSS
VL: SELTQDPAVSVALGQTVRITCQGDSLRSYYASWYQQKPGQAPVLVIYGKNNRPSGIPDRFSGSSSGNTASLTITGAQAEDEADYYCNSRDSSGIHLVFGGGTKLTVL
notes: Called 'guide antibody' and 'corresponding mAbs'; also called GPD32
- Kd [4]: 0.388 nM

B6: H3 IgG (antibody, V domains shown)
VH: QVQLVESGGGLVQPGGSLRLSCAASGFTFSSYAMSWVRQAPGKGLEWVSAISGSGGSTYYADSVKGRFTISRDNSKDTLYLQMNSLRAEDTAVYYCASRSLLDYWGQGTLVTVSS
VL: NFMLTQNPAVSVALGQTVRITCQGDSLRSYYASWYQQKPGQAPLLVIYGKNNRPSGIPDRFSGSSSGNTASLTITGAQAEDEADYYCNSRDSSGNPVFGGGTKVTVL
notes: IgG; also called anti-ALCAM H3 IgG; guide antibody H3
- Kd [4]: 0.00734 nM

B7: RYR (anti-EphA2 guide antibody, format not stated) (antibody, V domains shown)
VH: QVQLQESGGGLVQPGGSLRLSCAASGFTFSSYSMNWVRQAPGKGLEWVSYISSSSSTIYYADSVKGRFTISRDNAKNSLYLQMNSLRAEDTAVYYCARYRLPDFWSGYPNYGMDVWGQGTTVTVSS
VL: QSVLTQPPSVSGAPGQRVTISCTGSSSNIGAGYDVHWYQQLPGTAPKLLIYGNSNRPSGVPDRFSGSKSGTSASLAITGLQAEDEADYYCQSYDSSLSGHVVFGGGTKLTVL
notes: also called HCA-F1
- binding result [5]: binds
- binding result [6]: binds
